Results on one molecule are retold here after publication PMC2824050.

The target in this assay is HSV-1 cytoplasmic capsids (HSV-1, KOS strain) (UniProt P10202). As to the kind of experiment: co-sedimentation.
Chain of UniProt P10202 (P10202 whole entry, looked up): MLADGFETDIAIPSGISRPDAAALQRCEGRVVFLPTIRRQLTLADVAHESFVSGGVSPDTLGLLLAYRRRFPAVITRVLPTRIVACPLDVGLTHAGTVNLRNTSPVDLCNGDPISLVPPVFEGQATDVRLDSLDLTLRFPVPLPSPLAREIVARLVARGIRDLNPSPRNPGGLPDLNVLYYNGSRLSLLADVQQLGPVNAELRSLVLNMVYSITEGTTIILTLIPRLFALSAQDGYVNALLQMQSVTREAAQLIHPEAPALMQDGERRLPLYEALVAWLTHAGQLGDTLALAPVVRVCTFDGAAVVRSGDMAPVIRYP

B1: UL16 tegument protein of herpes simplex virus (natural protein)
chain: MAQLGPRRPLAPPGPPGTLPRPDSRAGARGTRDRVDDLGTDVDSIARIVNSVFVWRVVRADERLKIFRCLTVLTEPLCQVALPNPDPGRALFCEIFLYLTRPKALRLPPNTFFALFFFNRERRYCAIVHLRSVTHPLTPLLCTLTFARIRAATPPEETPDPTTEQLAEEPVVGELDGAYLVPAKTPPEPGACCALGPGAWWHLPSGQIYCWAMDSDLGSLCPPGSRARHLGWLLARITNHPGGCESCAPPPHIDSANALWLSSVVTESCPCVAPCLWAKMAQCTLAVQGDASLCPLLFGHPVDTVTLLQAPRRPCITDRLQEVVGGRCGADNIPPTSAGWRLCVFSSYISRLFATSCPTVARAVARASSSDPE
As to B1, the amount of UL16 on ΔUL37 capsids relative to WT worked out at 42%.
